Measurements published in PMC8699518 (Biomolecules, 2021).

Columns and labels:
E. coli-HuIFN-γ = biological target: T1, E. coli-HuIFN-γ (Homo sapiens, UniProt P01579); assay: ELISA; indirect ELISA of the hybridoma panel; antigens adsorbed overnight at 4 °C in PBS pH 7.2 at 2 μg/mL, 50 μL/well; anti-mouse immunoglobulin-HRP, OD450
T1 construct: human interferon gamma expressed in E. coli; source: expressed in E. coli

[1] = biological target: T2, recombinant glycosylated IFN-β (Pharmapark, Moscow, Russia) (Homo sapiens, UniProt P01574, glycosylated); assay: ELISA; Kd by the method of Friguet with the Klotz equation; murine antibody and IFN-β in solution at equilibrium, free antibody measured by ELISA
T2 construct: human interferon beta, glycosylated form (IFN-β-1a); also called IFN-β-1a; IFNβ-1a; source: bought: Pharmapark
T2 sequence (P01574 22-187): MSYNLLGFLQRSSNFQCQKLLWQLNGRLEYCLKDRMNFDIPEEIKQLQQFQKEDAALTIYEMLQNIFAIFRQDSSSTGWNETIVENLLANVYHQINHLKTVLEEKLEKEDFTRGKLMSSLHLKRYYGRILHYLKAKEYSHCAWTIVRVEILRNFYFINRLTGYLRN

T1 sequence (P01579 24-161): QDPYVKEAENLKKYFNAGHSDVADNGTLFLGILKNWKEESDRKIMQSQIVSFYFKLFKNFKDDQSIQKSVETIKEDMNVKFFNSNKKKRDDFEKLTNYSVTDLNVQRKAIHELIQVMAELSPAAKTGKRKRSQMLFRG

- binding result (E. coli-HuIFN-γ): no binding
- Kd [1]: 3.8 nM
B1: murine monoclonal antibody B16 against IFN-β (antibody, V domains shown)
VH: EVKLVESGGGLVQPGGSLKLSCAASGFTFTSYTMSWVRQTPEKRLEWVAYISNGGGSTYYPDTVKGRFTISRDNAKNTLYLQMSSLKSEDTAMYYCARLDWVFAYWGQGTLVTVSA
VL: DIVMTQSHKFMSTSVGDRVSITCKASQDVGTAVAWYQQKPGQSPKLLIYWASTRHTGVPDRFTGSGSGTDFTLTISNVQSEDLADYFCLQYSSFPYTFGGGTKLEIK
notes: VH of murine B16; mouse IgG heavy-chain constant region; VL of murine B16; mouse kappa light-chain constant domain (all L-chains of the panel were of the kappa isotype); Member of the hybridoma panel B1-B21; also called murB16; prototype mouse antibody; source: hybridoma B16
